From the DeepSol protein solubility set

assay: soluble on expression in E. coli; label from the status in PepcDB or PDB records

Sequence | soluble on expression in E. coli
MGSDKIHHHHHHMERIDEILSQLTTEEKVKLVVGVGLPGLFGNPHSRVAGAAGETHPVPRLGIPAFVLADGPAGLRINPTRENDENTYYTTAFPVEIMLASTWNRDLLEEVGKAMGEEVREYGVDVLLAPAMNIHRNPLCGRNFEYYSEDPVLSGEMASAFVKGVQSQGVGACIKHFVANNQETNRMVVDTIVSERALREIYLKGFEIAVKKARPWTVMSAYNKLNGKYCSQNEWLLKKVLREEWGFDGFVMSDWYAGDNPVEQLKAGNDMIMPGKAYQVNTERRDEIEEIMEALKEGKLSEEVLDECVRNILKVLVNAPSFKGYRYSNKPDLESHAEVAYEAGAEGVVLLENNGVLPFDENTHVAVFGTGQIETIKGGTGSGDTHPRYTISILEGIKERNMKFDEELASTYEEYIKKMRETEEYKPRTDSWGTVIKPKLPENFLSEKEIKKAAKKNDVAVVVISRISGEGYDRKPVKGDFYLSDDELELIKTVSKEFHDQGKKVVVLLNIGSPIEVASWRDLVDGILLVWQAGQEMGRIVADVLVGKINPSGKLPTTFPKDYSDVPSWTFPGEPKDNPQRVVYEEDIYVGYRYYDTFGVEPAYEFGYGLSYTKFEYKDLKIAIDGETLRVSYTITNTGDRAGKEVSQVYIKAPKGKIDKPFQELKAFHKTKLLNPGESEEISLEIPLRDLASFDGKEWVVESGEYEVRVGASSRDIRLRDIFLVEGEKRFKP | not soluble
MRYDVVVVGSGVAGPIVARNVAKAGFSVLLVDKKPAIGAPKQCAEGLTINAFKQFDIPYDKRFINREIYGAKIYSPSGYTAELRYKEVSGVILERKVFDKMLAYYAAKAGAEVLARTEVVDVIRREGKIVGVKAKHEGEPMEIEAKVIVAADGVESTIARKAGIDTYAPPHEFDSGYEYEMIIEGFDPDLIHLFFGNEVAPRGYVWVFPKDEDRANVGIGINSDNEKTAKYYLDKWLKENNIPRNKILEVNVGLIPVGGFVKELVKENVLVVGDAARQVNPIHGGGMAEAMKASTIASKWIIKALEEENLELLKNYKEEWWKTEGPRMEKLLRLRRAMEKLTDEDLDVFVQLVSGTDLEKIAGGNYIEVVKALMKHPKVLMSRRRLEILKALLLEHHHHHH | soluble
MKLREQINSISGFRYVIDELCIHSSVGRRCLMEQEFLTEASDIEVLLSRVEIAISYQADQRKQKGLDEIAHKLMQLRDIQGTIYSLSRHVVCTDIDFFEIKFLAILSEDIRDLIRFYQLDDLSSPLPDLSHIVSVLDPEEKKIPHFYIYDAYS | not soluble
MARHVFLPPLSVHRHRPHPLGVCGFESFQTLHPRKRAARPDSRPLYELCRHTCLQDFPKIRHPLCRHGTQQHHYARFGAPAPMAAYEKCGGTRRRTSRRQPPFRTRPATQIRLRMAVPPPTYWAEYSTDRLNKEKKNNKPHFVFCTVSHLRRLKGHDVLLTAFARALAQCPQLRLNIGGSGQEEQRLKQQAADLGITHAVTFLGALQPEAVLDLMRNSDAFVLASRTETFGVVYIEALSQGLPVIATRCGGAESIVSDGNGYLVPVDDDDALADALIKMCEHHSDFEPARLRENCLNEFGENAVIGRLIGIFRQAIAEYGKKIPVKYSGLTKIRTRRRSRRQYK | not soluble
MLRDTFANTLKDALKARDARRTSTVRLIQAAVKDRDIANRGVGKDPVSDEDIMQILTKMVKQREESATIYEGAGRPELAAQEREEIVIIKEFMPEEIPAEKVRELCQAVISETGASGLRDMGKCMNALKERYPGQIDFAKASGVVKDLLK | not soluble
MGHHHHHHSHMFYLAAAVSDFYVPVSEMPEHKIQSSGGPLQITMKMVPKLLSPLVKDWAPKAFIISFKLETDPAIVINRARKALEIYQHQVVVANILESRQSFVFIVTKDSETKLLLSEEEIEKGVEIEEKIVDNLQSRHTAFIGDRN | not soluble
MKKHGVLNSEIAAVLASLGHTDTVVIADCGLPIPDGVKRIDLAVEIGKPSFLEVLQVVADDMAIEKVTLAEEVIINNAEVNKEIERKLIEPAFEYVSHEQFKEHTKKAKAIIRTGEATPYANVILHAGVIF | not soluble
MSSDNLVENIIAEVLGKVGDLKTPSAASQPGISQQEPAIPRKLCGLTEFVGTATGDSIGLVIANVDSALLDAMHLEKKYRSIGILGARTGAGPQIMAADEAVKATNTEVVAIELARDTKGGAGHGSLVLFGGQDVSDVKRAVEVALGELERTFGDIYANAAGHVELQYTARASYALEKAFGAPLGRACGVIVGAPAAIGVLMADTAIKSANVDVVAYNSPAKGTSFTNEVILIVSGDSGAVRQAVRSARDVGLTLLETMGGKAPSATTPYI | not soluble
MSLMFHVVDDSEMLREMLVDMIEIYDCNVMTFASASEYLEYVRSDAFKAPSAVLTDVHMPQMSGYEMMEQVLAIDPSIRFAILSGEPDIPARYQDKVCLFLGKPYTGDQIQNMIYIFKQCELNSASEGHHHHHH | soluble
MLGAIIGDIVGSVYEWNNIKTKDFPLFRKDCFFTDDTVMTCAVAEAIMNGGQKDDFIDAMKKYGRMYPNADYGARFNAWLNSDNREPYNSFGNGSAMRISPCAWIMDCGFYAKTGIWPSSRGLTSLSAEVTHNHPEGVKGAMATADAIFLCRFYFGGYCREYEQSINDNPTECKRRIKDYIEKEYDYNLSQTLDEIRPNYRFNETCQETVPQAIIAFLESRDFEDAIRNAISLGGDSDTLAAITCSIAEAAYGIPDWIKDKAYSYLDEPLKDVVRRWENRIKAY | not soluble
MSLYSIIDIETTGGHASGNRIIEIAIYKFDGEKITDTYQTLINPERRIPVFITSLTGIDTEMVADAPVFADVAREITDFTRDSVFVAHNVNFDYTFVKKELQALNMPYNLPKLCTVRLSRKIFPGLPSYSLGNLCGSLGIDVQNRHRAAGDAEATVRLLNKLLLNDTEGFIPKSLKKNSKETLLPANLPREQFDALPETFGVYYFHDHKGKVIYVGKANNIKKRVISHFSGKQQNQKSQQFMQAIYGLSYEVCGSELLSLLLESHEIKKYFPVYNSIQKFGEKNYGIYQYEDNAGFIRLSIAKVNKLQHPLISFRYISEARTFLLEKVRTFQLCHRRSGLQTAPCSDVELCTACKGTTRSTAYNVKMKRALATFEHPDHSYIIKQPGRTRDEYAVIVVEAGRYLGYAYIPADLSGSTIEELKPFVNRHPDNRDIQKILAMHQRKSMVIAVEGHHHHHH | not soluble
MLFLPILILNLLIITHAIDIIPREVLFQDPKYSSVSLSPDAKQVGYVAPDENGIRNVFTRCSSCSYSRQVTFETEHPILNYVWTAIPDVILFTQDNHGDENTRIYKKNISATAIAADKTQRVVISEKPMVKAMILSNNLISETVLIGMNDENPALHNIYAFNCQTDELKLVLQNRRFSIFFFDNDLNVRLASEEGPDGEMIYYRPRSNEGARTTEQNTWVEYLRIQHDDKAITMPITFDKSNNFMYWIMGDGSDLGNLVVFPFEDPQQKEILYTAQRAQIGNVLIHPTDKTLLAVTEVYHKPELFVANETFMEDLQYLVNMKPSGSMNIVSMSIDMSTWLVTYSSSDEPYDIYLYRRWNKKAELFMSTRPELKKYTLNKQIGFDFRARDEMTIQAYLSLPPQAPLLKSSQVPDGDRPYANLGMIPAVPQKMIVLVHGGPKARDHYGFSPMNAWLTNRGYSVLQVNFRGSTGFGKRLTNAGNGEWGRKMHFDILDAVEFAVSKGIANRSEVAVMGGSYGGYETLVALTFTPQTFACGVDIVGPSNLISLVQAIPPYWLGFRKDLIKMVGADISDEEGRQSLQSRSPLFFADRVTKPIMIIQGANDPRVKQAESDQFVAALEKKHIPVTYLLYPDEGHGVRKPQNSMEQHGHIETFLQQCLGGETQPFQPGQYNSSAIIKKIGIEGAAIARQNLQIAQNQFAQQLPRGPVAPSIFYRPPVRAQRVMLAPNQNVMNRIFPVQG | soluble
MKIHPLSDVQAKQIGQGTSIWQYVVVLPGAVIGSDCNICSHCFIENAVVIGDRVTIKCGVQIWDGLRVEDDVFIGPNVTFTNDLFPRSKQHPKEFAKTVIQKGASIGANATILAGSTIGRNAMVGAGAVVTKSVPPNAIVVGNPARITGYVSTIPAQQKHSEIEVGENIGTVGQSAIPGVQFVRLPIIPDLRGSLSFAEFGQYLPFIPKRYFLVFDVQSREVRGEHAHKELHQFLVCVKGACSVMVDDGNCREEYILNTPGAALHIPPLVWGVQYKYSPDAVLMVLASDVYKPEDYIRDYDQFIALVKKLEHHHHHH | not soluble
